This assay concerns the target envelope protein domain III from dengue virus serotype 2 (DENV2 DIII) (dengue virus serotype 2). Kind of assay: ITC. For orientation: Isothermal titration calorimetry measures the heat released or taken up as one component is titrated into another.
What is called Kd is a measure of binding affinity in units of concentration. As usually defined, the stoichiometry N is a count of units in the complex or per binding partner. scFv4E11 bearing the AlaH55Glu mutation registered a Kd of 12.8 nM, an other of -1.89 kcal/mol and a stoichiometry N of 1.04 sites.
The corresponding values for “scFv513 bearing the single mutation GluH55Ala” are 28.7 nM, -1.78 kcal/mol and 0.99 sites.
“single-chain variable fragment of murine monoclonal antibody 4E11 (scFv4E11), wild type” had a Kd of 30.7 nM, an other of -2.09 kcal/mol and a stoichiometry N of 0.96 sites.
The substance “single-chain variable fragment of humanized monoclonal antibody 513 (scFv513), wild type” had a Kd of 1.64 nM, an other of -4.28 kcal/mol and a stoichiometry N of 1.01 sites.

The values are drawn from article PMC5981469.
